Data as given in patent publication US20220378833A1 (Novartis, published 2022).

Columns and labels:
[1] = biological target: T1, His-Avidin-FKBP (wild-type FKBP) (biotinylated (residue not stated; construct carries an avi-tag)); assay: AlphaLISA direct assay: 30 nM Flag-FRB and 30 nM biotinylated FKBP; the titrated species is everolimus (EC50 is an everolimus concentration)
T1 construct: also called biotinylated wild-type FKBP; biotinylated FKBP
Method: (§1) FRB mutations were also ranked in an alternative assay format. […] All dilutions were made in 1 × AlphaLISA Immunoassay buffer (PerkinElmer). Anti-Flag acceptor beads (PerkinElmer) were added at 10 ug/ml final concentration and incubated for one hour at room temperature. Streptavidin donor beads (PerkinElmer), were then added at a final concentration of 40 ug/ml and the plate was protected from light and incubated for 30 minutes at room temperature. The plate was then read on the PerkinElmer EnVision Multiplate reader equipped with the Alpha Module using excitation of 680 nm and a 570 nm Emission filter.

[2] = biological target: T1, His-Avidin-FKBP (wild-type FKBP); assay: AlphaLISA direct assay, Flag-FRB and biotinylated FKBP, everolimus titrated
Method: as §1

T1 sequence (chain, as listed by the source limits assumed): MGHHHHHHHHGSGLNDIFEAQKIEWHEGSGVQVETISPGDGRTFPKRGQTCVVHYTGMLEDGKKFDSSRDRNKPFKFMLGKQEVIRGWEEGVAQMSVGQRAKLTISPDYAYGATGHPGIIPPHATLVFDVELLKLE

B1: His-FLAG-FRB (wild-type FRB) (other)
chain: MGHHHHHHHHGSDYKDDDDKGSASRILWHEMWHEGLEEASRLYFGERNVKGMFEVLEPLHAMMERGPQTLKETSFNQAYGRDLMEAQEWCRKYMKSGNVKDLTQAWDLYYHVFRRISKTS
notes: also called wild type Flag-FRB
- EC50 [1]: 3.9 nM

B2: His-FLAG-FRB T2098L (other)
chain: MGHHHHHHHHGSDYKDDDDKGSASRILWHEMWHEGLEEASRLYFGERNVKGMFEVLEPLHAMMERGPQTLKETSFNQAYGRDLMEAQEWCRKYMKSGNVKDLLQAWDLYYHVFRRISKTS
- fold improvement over wild type FRB [2]: 3 fold
- EC50 [1]: 1.44 nM

B3: His-FLAG-FRB E2032I (other)
chain: MGHHHHHHHHGSDYKDDDDKGSASRILWHEMWHEGLIEASRLYFGERNVKGMFEVLEPLHAMMERGPQTLKETSFNQAYGRDLMEAQEWCRKYMKSGNVKDLTQAWDLYYHVFRRISKTS
notes: also called E20321 (OCR form)
- EC50 [1]: 2.46 nM

B4: His-FLAG-FRB E2032L (other)
chain: MGHHHHHHHHGSDYKDDDDKGSASRILWHEMWHEGLLEASRLYFGERNVKGMFEVLEPLHAMMERGPQTLKETSFNQAYGRDLMEAQEWCRKYMKSGNVKDLTQAWDLYYHVFRRISKTS
- EC50 [1]: 2.15 nM
